Where no end group is shown, it is not given here. [ ]: non-standard residue; d: D form. pY = N[C@@H](Cc1ccc(OP(=O)(O)O)cc1)C(=O)O

Chain of GAPDH (P46406 whole entry, the tested form may be a part): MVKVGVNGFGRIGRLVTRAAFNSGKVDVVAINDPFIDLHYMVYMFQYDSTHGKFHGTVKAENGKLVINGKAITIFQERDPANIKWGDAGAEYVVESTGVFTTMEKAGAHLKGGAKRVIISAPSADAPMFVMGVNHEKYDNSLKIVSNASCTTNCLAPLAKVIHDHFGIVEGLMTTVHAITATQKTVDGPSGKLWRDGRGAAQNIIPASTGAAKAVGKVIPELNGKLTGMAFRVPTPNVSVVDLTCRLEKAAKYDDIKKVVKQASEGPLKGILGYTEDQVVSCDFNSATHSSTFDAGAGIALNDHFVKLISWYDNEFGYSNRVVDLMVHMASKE

This experiment has as its target GAPDH (Oryctolagus cuniculus, UniProt P46406). As to the kind of experiment: fluorescence titration.
The term Kd denotes a measure of binding affinity in units of concentration. Read a low Kd as tighter binding. On to LIFRNVELQCLDADDAKATFDEEEGRDEYDEVAMPV [AE1 C-terminal domain (AE1C-WT) 876-911], for which the Kd was determined as 2300 nM. In the case of CLDADDAKATFDEEEGRDE[pY]DEVAMPV [AE1 C-terminal peptide AE1C-pY904] it was 2600 nM. In the case of CLDADDAKATFDEEEGRDEYDEVAMPV [AE1 C-terminal peptide AE1C-Y904] it was 3200 nM.
